These results are taken from publication PMC4506539, “Crystallographic structure of a small molecule SIRT1 activator-enzyme complex” (Nature Communications, 2015).

The target of assay [1] is T1, hSIRT1 catalytic core, residues 229–516 (human, UniProt Q96EB6 229-516).
T1 sequence (looked up): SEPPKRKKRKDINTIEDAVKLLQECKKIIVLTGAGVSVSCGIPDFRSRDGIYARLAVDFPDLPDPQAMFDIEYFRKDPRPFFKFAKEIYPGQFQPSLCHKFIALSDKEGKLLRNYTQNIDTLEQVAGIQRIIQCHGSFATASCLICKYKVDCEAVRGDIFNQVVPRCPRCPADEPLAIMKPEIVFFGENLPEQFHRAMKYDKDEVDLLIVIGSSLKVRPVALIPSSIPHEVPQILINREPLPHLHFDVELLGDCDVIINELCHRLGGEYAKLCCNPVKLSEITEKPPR
The assay can be described thus: cell-based or functional assay.

A further assay concerns the target T2, full-length human SIRT1 (human, UniProt Q96EB6 1-747).
T2 construct: human SIRT1, full length, 747 amino acids; also called hSIRT1; wild-type hSIRT1
T2 sequence (looked up): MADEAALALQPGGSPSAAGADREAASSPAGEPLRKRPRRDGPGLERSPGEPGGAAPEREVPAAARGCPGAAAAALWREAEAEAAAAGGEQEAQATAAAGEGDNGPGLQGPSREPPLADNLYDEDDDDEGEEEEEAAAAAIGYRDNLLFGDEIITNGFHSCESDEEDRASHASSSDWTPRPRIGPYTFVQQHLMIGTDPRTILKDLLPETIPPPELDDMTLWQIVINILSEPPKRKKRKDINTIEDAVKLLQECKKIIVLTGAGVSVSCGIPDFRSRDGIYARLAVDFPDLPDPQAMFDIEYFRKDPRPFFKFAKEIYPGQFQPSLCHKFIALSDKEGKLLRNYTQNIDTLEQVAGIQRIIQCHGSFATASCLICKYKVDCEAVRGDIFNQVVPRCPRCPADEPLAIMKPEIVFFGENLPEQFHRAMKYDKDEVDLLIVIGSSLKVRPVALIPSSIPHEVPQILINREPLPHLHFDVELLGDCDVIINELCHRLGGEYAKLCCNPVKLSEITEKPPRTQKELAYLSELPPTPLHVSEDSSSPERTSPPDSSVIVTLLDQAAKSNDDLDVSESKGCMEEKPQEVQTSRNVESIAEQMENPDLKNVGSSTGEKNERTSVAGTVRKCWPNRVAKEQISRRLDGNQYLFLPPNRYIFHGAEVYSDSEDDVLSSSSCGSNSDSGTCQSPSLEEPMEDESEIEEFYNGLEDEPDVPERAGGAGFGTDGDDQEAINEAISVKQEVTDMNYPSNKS
The assay can be described thus: HDX-MS; 0.77 mg/ml full-length SIRT1 ± 3.88 mM Ac-p53(W5) ± 192 μM STAC 1 in 1.9% DMSO, mixed 1:1 with 100 mM phosphate pH read 7.0 in D2O; 0 °C, 15-5,000 s. The note with it: both partners purified.

With QYLFLPPNRYIFHGAEVYSDSEDDV (peptide, UniProt Q96EB6 641-665, looked up) [human C-terminal regulatory segment (CTR) peptide of SIRT1], in assay [1], the “deacetylase activity of hSIRT1cd after addition of the CTR peptide, relative to full-length hSIRT1 (∼15% without the peptide)” value is 80 % of the activity of full-length hSIRT1.

B1: Ac-p53(W5) (Ac-RHKKAcW-NH2) (peptide)
peptide: Ac-RHKK(Ac)W-NH2
notes: p53-based peptide Ac-RHKKAcW-NH2; also called Trp-5mer; p53-derived peptide substrate; source: synthetic peptide, bought: Biopeptide
Take B1: in the assay with full-length human SIRT1, the binding result was “binds”.
